The text below walks through data of patent publication US20170009288, “METHOD FOR CONTROLLED DNA FRAGMENTATION” (THERMO FISHER SCIENTIFIC BALTICS UAB, published 2017).

The target in data set [1] is T1, MuA transposase (UniProt P07636 P07636:1-663). Description: EMSA; no apparent complex formation. As to conditions: tags: Thermo Scientific F-750 (stand-alone MuA transposase); chain copies: 4. The method, then: (§1) In parallel, EMSA analysis was performed for all pre-formed MuA-transposon complexes used in the first experiment (Table 3). DNA shifts resulting from transposome complex formation were analyzed using agarose gel electrophoresis in 2% agarose gel containing 87 μg/ml BSA and 87 μg/ml heparin in 1×TBE buffer. DNA was stained with ethidium bromide. […] Weaker complexes were formed with transposons No. 5, 10, 11.
T1 sequence (P07636 whole entry, one chain of several): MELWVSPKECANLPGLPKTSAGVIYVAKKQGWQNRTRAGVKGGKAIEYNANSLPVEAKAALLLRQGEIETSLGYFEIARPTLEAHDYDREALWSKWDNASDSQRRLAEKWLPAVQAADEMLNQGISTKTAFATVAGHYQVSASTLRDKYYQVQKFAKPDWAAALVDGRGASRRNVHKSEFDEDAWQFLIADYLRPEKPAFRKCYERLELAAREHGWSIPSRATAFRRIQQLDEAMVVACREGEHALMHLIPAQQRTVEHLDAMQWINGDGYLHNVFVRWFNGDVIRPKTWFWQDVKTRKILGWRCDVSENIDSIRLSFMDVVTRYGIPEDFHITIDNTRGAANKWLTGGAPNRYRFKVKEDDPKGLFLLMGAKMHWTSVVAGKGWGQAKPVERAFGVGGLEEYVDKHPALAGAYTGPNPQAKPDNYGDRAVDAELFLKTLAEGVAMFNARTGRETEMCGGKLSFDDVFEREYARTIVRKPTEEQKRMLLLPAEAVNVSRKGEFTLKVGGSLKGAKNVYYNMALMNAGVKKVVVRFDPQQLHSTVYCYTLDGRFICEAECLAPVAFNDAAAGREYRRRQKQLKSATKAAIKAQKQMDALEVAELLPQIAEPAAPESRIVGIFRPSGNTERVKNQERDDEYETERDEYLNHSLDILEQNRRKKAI
Background: Mobility shift assays separate free from complexed probe on a gel.

The target in data set [2] is T1, MuA transposase. In words: EMSA; strong complex; 2% agarose with BSA and heparin, 1xTBE; assembled 30 C 1 h. The settings on record: tags: Thermo Scientific F-750 (stand-alone MuA transposase); chain copies: 4; 5' overhang TGCT side of non-transferred strand. The protocol: as §1

B1: Transposon No. 9 (dsDNA)
DNA 1: GTTCTCGCATCTATCGTGAAAAGCTTCTCCGTTCTTCGGCCGCCGCTTCA
DNA 2: TGCTGAAGCGGCGGCCGAAGAACGGAGAAGCTTTTCACGATAGATGCGAGAAC
Turning to B1, in the data set with MuA transposase [1], the binding result was “no binding”.

B2: Control native Mu transposon end (dsDNA)
DNA 1: GTTTTCGCATTTATCGTGAAACGCTTTCGCGTTTTTCGTGCGTCAGTTCA
DNA 2: TGCTGAACTGACGCACGAAAAACGCGAAAGCGTTTCACGATAAATGCGAAAAC
As for B2, the binding result with MuA transposase [2] is “binds”.
